{"source": "paper PMC8246641", "binders": {"B1": {"name": "GST-ABS6^329–387 (DUF4005 domain of ABS6/AtIQD16, N-terminal GST tag) (domain or fragment)", "chain": "{GST}-RSASPRIPCSPSSMQPNYMSATESAKAKARTQSTPRRRPMTAKKRLCYAEEESLRSPSF", "modifications": "cysteine pairing not given here"}}, "molecular_target": "taxol-stabilized microtubules (MTs) (UniProt P02550)", "assay": "co-sedimentation", "note": "Ends that are not written are not given here.", "data": [{"binder": "B1", "values": [{"measurement": "Kd", "result": 996, "unit": "nM"}]}]}
